Reference: US20110263454A1, “Methods of Identifying Functional Characteristics of Promoters, Transcription Modifying Proteins and Transcription Modulating Agents” (Salk Institute for Biological Studies, priority 2008, published 2011)

How the values were obtained:
mUCP2 promoter = assay: NHR-promoter luciferase screen, mUCP2 promoter; type: cell-based, mouse; settings: for Luc. act., normalized to lacZ / Normalized Luc. act., normalized to control: mUCP2 promoter reporter, co-transfected HR, with or without its ligand; for Normalized Luc. act., normalized to control: relative to control; for luciferase activity normalized to lacZ activity and to a control, mUCP2: mUCP2 promoter-luciferase, CV-1 cells, NHR +/- ligand, control = 1.00
Outline: (§1)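 CV-1 cells were co-transfected with 50 ng NHR (homodimer or NHR/RXR heterodimer), 100 ng promoter-luciferase construct and 50 ng LacZ. Luciferase was normalized to LacZ and to a no-NHR/no-ligand control.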

mLeptin promoter = assay: NHR-promoter luciferase screen, mLeptin promoter; type: cell-based, mouse; settings: for Luc. act., normalized to lacZ / Normalized Luc. act., normalized to control: Table 7, mLeptin; for Results of assays of transcription factor (+/- ligand) with mLeptin: Table 6d, luciferase activity relative to control (control = 1.00)
Outline: as §1

hCYP3A4 promoter = assay: NHR-promoter luciferase screen, hCYP3A4 promoter; type: cell-based, human; settings: for Luc. act., normalized to lacZ / Normalized Luc. act., normalized to control: CYP3A4 promoter, HR/ligand component; for hCYP3A4 promoter reporter activity: transcription factor +/- ligand, control = 1.00
Outline: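 Luciferase reporter read-out after co-expression in CV-1 cells of V5H6-tagged receptor (alone or with RXR), the promoter construct and LacZ. Values are luciferase/LacZ relative to a control lacking NHR or ligand; orphan receptors tested ligand-free.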

mPOMC promoter = assay: NHR-promoter luciferase screen, mPOMC promoter; type: cell-based, mouse; settings: for Results of assays of transcription factor (+/- ligand) with mPOMC: Table 6d, luciferase activity relative to control (control = 1.00); for Luc. act., normalized to lacZ / Normalized Luc. act., normalized to control: mPOMC promoter, HR component with or without ligand; for Normalized Luc. act., normalized to control: relative to control
Outline: as §1

hIRF7 promoter = assay: NHR-promoter luciferase screen, hIRF7 promoter; type: cell-based, human; settings: for Normalized Luc. act., normalized to control / Luc. act., normalized to lacZ: IRF7 promoter reporter; for Normalized Luc. act., normalized to control: HR without or with its ligand, relative to control; for Luc. act., normalized to lacZ: hormone receptor (HR) without or with its ligand; for hIRF7 promoter reporter activity: transcription factor +/- ligand, control = 1.00
Outline: as §1

mCAR promoter = assay: NHR-promoter luciferase screen, mCAR promoter; type: cell-based, mouse; settings: for luciferase activity normalized to lacZ activity and to a control, mCAR: mCAR promoter-luciferase, CV-1 cells, NHR +/- ligand, control = 1.00; for Luc. act., normalized to lacZ / Normalized Luc. act., normalized to control: mCAR promoter, HR/ligand component
Outline: as §1

B1: RARg: Retinoic acid receptor γ (NR1B3), nuclear hormone receptor cDNA driver (protein, UniProt P13631 1-454, looked up)
Retinoic acid receptor gamma: MATNKERLFAAGALGPGSGYPGAGFPFAFPGALRGSPPFEMLSPSFRGLGQPDLPKEMASLSVETQSTSSEEMVPSSPSPPPPPRVYKPCFVCNDKSSGYHYGVSSCEGCKGFFRRSIQKNMVYTCHRDKNCIINKVTRNRCQYCRLQKCFEVGMSKEAVRNDRNKKKKEVKEEGSPDSYELSPQLEELITKVSKAHQETFPSLCQLGKYTTNSSADHRVQLDLGLWDKFSELATKCIIKIVEFAKRLPGFTGLSIADQITLLKAACLDILMLRICTRYTPEQDTMTFSDGLTLNRTQMHNAGFGPLTDLVFAFAGQLLPLEMDDTETGLLSAICLICGDRMDLEEPEKVDKLQEPLLEALRLYARRRRPSQPYMFPRMLMKITDLRGISTKGAERAITLKMEIPGPMPPLIREMLENPEMFEDDSSQPGPHPNASSEDEVPGGQGKGGLKSPA
mUCP2 promoter
  Luc. act., normalized to lacZ: 242.5
  Normalized Luc. act., normalized to control: 2.2
  luciferase activity normalized to lacZ activity and to a control, mUCP2: 2.21
mLeptin promoter
  Luc. act., normalized to lacZ: 3.6
  Normalized Luc. act., normalized to control: 1.2
  Results of assays of transcription factor (+/- ligand) with mLeptin: 1.21
hCYP3A4 promoter
  Luc. act., normalized to lacZ: 4.0
  Normalized Luc. act., normalized to control: 0.9
  hCYP3A4 promoter reporter activity: 0.91
mPOMC promoter
  Results of assays of transcription factor (+/- ligand) with mPOMC: 1.53
  Luc. act., normalized to lacZ: 105.9
  Normalized Luc. act., normalized to control: 1.5
hIRF7 promoter
  Normalized Luc. act., normalized to control: 1.8
  Luc. act., normalized to lacZ: 47.5
  hIRF7 promoter reporter activity: 1.80
mCAR promoter
  luciferase activity normalized to lacZ activity and to a control, mCAR: 1.24
  Luc. act., normalized to lacZ: 47.1
  Normalized Luc. act., normalized to control: 1.2

B2: RARb: Retinoic acid receptor β (NR1B2), nuclear hormone receptor cDNA driver (protein, UniProt P10826 1-455, looked up)
Retinoic acid receptor beta: MTTSGHACPVPAVNGHMTHYPATPYPLLFPPVIGGLSLPPLHGLHGHPPPSGCSTPSPATIETQSTSSEELVPSPPSPLPPPRVYKPCFVCQDKSSGYHYGVSACEGCKGFFRRSIQKNMIYTCHRDKNCVINKVTRNRCQYCRLQKCFEVGMSKESVRNDRNKKKKETSKQECTESYEMTAELDDLTEKIRKAHQETFPSLCQLGKYTTNSSADHRVRLDLGLWDKFSELATKCIIKIVEFAKRLPGFTGLTIADQITLLKAACLDILILRICTRYTPEQDTMTFSDGLTLNRTQMHNAGFGPLTDLVFTFANQLLPLEMDDTETGLLSAICLICGDRQDLEEPTKVDKLQEPLLEALKIYIRKRRPSKPHMFPKILMKITDLRSISAKGAERVITLKMEIPGSMPPLIQEMLENSEGHEPLTPSSSGNTAEHSPSISPSSVENSGVSQSPLVQ
mUCP2 promoter
  Luc. act., normalized to lacZ: 277.3
  Normalized Luc. act., normalized to control: 2.5
  luciferase activity normalized to lacZ activity and to a control, mUCP2: 2.52
mLeptin promoter
  Luc. act., normalized to lacZ: 2.7
  Normalized Luc. act., normalized to control: 0.9
  Results of assays of transcription factor (+/- ligand) with mLeptin: 0.91
hCYP3A4 promoter
  Luc. act., normalized to lacZ: 4.6
  Normalized Luc. act., normalized to control: 1.0
  hCYP3A4 promoter reporter activity: 1.03
mPOMC promoter
  Results of assays of transcription factor (+/- ligand) with mPOMC: 1.85
  Luc. act., normalized to lacZ: 127.4
  Normalized Luc. act., normalized to control: 1.8
hIRF7 promoter
  Normalized Luc. act., normalized to control: 1.8
  Luc. act., normalized to lacZ: 47.2
  hIRF7 promoter reporter activity: 1.79
mCAR promoter
  luciferase activity normalized to lacZ activity and to a control, mCAR: 1.30
  Luc. act., normalized to lacZ: 49.6
  Normalized Luc. act., normalized to control: 1.3

B3: RARa: Retinoic acid receptor α (NR1B1), nuclear hormone receptor cDNA driver (protein, UniProt P10276 1-462, looked up)
Retinoic acid receptor alpha: MASNSSSCPTPGGGHLNGYPVPPYAFFFPPMLGGLSPPGALTTLQHQLPVSGYSTPSPATIETQSSSSEEIVPSPPSPPPLPRIYKPCFVCQDKSSGYHYGVSACEGCKGFFRRSIQKNMVYTCHRDKNCIINKVTRNRCQYCRLQKCFEVGMSKESVRNDRNKKKKEVPKPECSESYTLTPEVGELIEKVRKAHQETFPALCQLGKYTTNNSSEQRVSLDIDLWDKFSELSTKCIIKTVEFAKQLPGFTTLTIADQITLLKAACLDILILRICTRYTPEQDTMTFSDGLTLNRTQMHNAGFGPLTDLVFAFANQLLPLEMDDAETGLLSAICLICGDRQDLEQPDRVDMLQEPLLEALKVYVRKRRPSRPHMFPKMLMKITDLRSISAKGAERVITLKMEIPGSMPPLIQEMLENSEGLDTLSGQPGGGGRDGGGLAPPPGSCSPSLSPSSNRSSPATHSP
mUCP2 promoter
  Luc. act., normalized to lacZ: 232.0
  Normalized Luc. act., normalized to control: 2.1
  luciferase activity normalized to lacZ activity and to a control, mUCP2: 2.11
mLeptin promoter
  Luc. act., normalized to lacZ: 2.4
  Normalized Luc. act., normalized to control: 0.8
  Results of assays of transcription factor (+/- ligand) with mLeptin: 0.82
hCYP3A4 promoter
  Luc. act., normalized to lacZ: 4.2
  Normalized Luc. act., normalized to control: 0.9
  hCYP3A4 promoter reporter activity: 0.94
mPOMC promoter
  Results of assays of transcription factor (+/- ligand) with mPOMC: 1.43
  Luc. act., normalized to lacZ: 98.5
  Normalized Luc. act., normalized to control: 1.4
hIRF7 promoter
  Normalized Luc. act., normalized to control: 1.5
  Luc. act., normalized to lacZ: 40.6
  hIRF7 promoter reporter activity: 1.54
mCAR promoter
  luciferase activity normalized to lacZ activity and to a control, mCAR: 1.22
  Luc. act., normalized to lacZ: 46.3
  Normalized Luc. act., normalized to control: 1.2

B4: RVRb: Rev-Erb β (NR1D2, alternative name RVR), cDNA driver (protein, UniProt Q14995 1-579, looked up)
Nuclear receptor subfamily 1 …: MEVNAGGVIAYISSSSSASSPASCHSEGSENSFQSSSSSVPSSPNSSNSDTNGNPKNGDLANIEGILKNDRIDCSMKTSKSSAPGMTKSHSGVTKFSGMVLLCKVCGDVASGFHYGVHACEGCKGFFRRSIQQNIQYKKCLKNENCSIMRMNRNRCQQCRFKKCLSVGMSRDAVRFGRIPKREKQRMLIEMQSAMKTMMNSQFSGHLQNDTLVEHHEQTALPAQEQLRPKPQLEQENIKSSSPPSSDFAKEEVIGMVTRAHKDTFMYNQEQQENSAESMQPQRGERIPKNMEQYNLNHDHCGNGLSSHFPCSESQQHLNGQFKGRNIMHYPNGHAICIANGHCMNFSNAYTQRVCDRVPIDGFSQNENKNSYLCNTGGRMHLVCPMSKSPYVDPHKSGHEIWEEFSMSFTPAVKEVVEFAKRIPGFRDLSQHDQVNLLKAGTFEVLMVRFASLFDAKERTVTFLSGKKYSVDDLHSMGAGDLLNSMFEFSEKLNALQLSDEEMSLFTAVVLVSADRSGIENVNSVEALQETLIRALRTLIMKNHPNEASIFTKLLLKLPDLRSLNNMHSEELLAFKVHP
mUCP2 promoter
  Luc. act., normalized to lacZ: 174.4
  Normalized Luc. act., normalized to control: 1.6
  luciferase activity normalized to lacZ activity and to a control, mUCP2: 1.59
mLeptin promoter
  Luc. act., normalized to lacZ: 4.4
  Normalized Luc. act., normalized to control: 1.5
  Results of assays of transcription factor (+/- ligand) with mLeptin: 1.50
hCYP3A4 promoter
  Luc. act., normalized to lacZ: 4.5
  Normalized Luc. act., normalized to control: 1.0
  hCYP3A4 promoter reporter activity: 1.01
mPOMC promoter
  Results of assays of transcription factor (+/- ligand) with mPOMC: 0.85
  Luc. act., normalized to lacZ: 58.4
  Normalized Luc. act., normalized to control: 0.8
hIRF7 promoter
  Normalized Luc. act., normalized to control: 1.9
  Luc. act., normalized to lacZ: 50.4
  hIRF7 promoter reporter activity: 1.91
mCAR promoter
  luciferase activity normalized to lacZ activity and to a control, mCAR: 0.91
  Luc. act., normalized to lacZ: 34.5
  Normalized Luc. act., normalized to control: 0.9

B5: PPARd: Peroxisome proliferator activated receptor δ (NR1C2), cDNA driver (protein, UniProt Q03181 1-441, looked up)
Peroxisome …: MEQPQEEAPEVREEEEKEEVAEAEGAPELNGGPQHALPSSSYTDLSRSSSPPSLLDQLQMGCDGASCGSLNMECRVCGDKASGFHYGVHACEGCKGFFRRTIRMKLEYEKCERSCKIQKKNRNKCQYCRFQKCLALGMSHNAIRFGRMPEAEKRKLVAGLTANEGSQYNPQVADLKAFSKHIYNAYLKNFNMTKKKARSILTGKASHTAPFVIHDIETLWQAEKGLVWKQLVNGLPPYKEISVHVFYRCQCTTVETVRELTEFAKSIPSFSSLFLNDQVTLLKYGVHEAIFAMLASIVNKDGLLVANGSGFVTREFLRSLRKPFSDIIEPKFEFAVKFNALELDDSDLALFIAAIILCGDRPGLMNVPRVEAIQDTILRALEFHLQANHPDAQYLFPKLLQKMADLRQLVTEHAQMMQRIKKTETETSLHPLLQEIYKDMY
mUCP2 promoter
  Luc. act., normalized to lacZ: 172.7
  Normalized Luc. act., normalized to control: 1.6
  luciferase activity normalized to lacZ activity and to a control, mUCP2: 1.57
mLeptin promoter
  Luc. act., normalized to lacZ: 2.6
  Normalized Luc. act., normalized to control: 0.9
  Results of assays of transcription factor (+/- ligand) with mLeptin: 0.89
hCYP3A4 promoter
  Luc. act., normalized to lacZ: 5.0
  Normalized Luc. act., normalized to control: 1.1
  hCYP3A4 promoter reporter activity: 1.12
mPOMC promoter
  Results of assays of transcription factor (+/- ligand) with mPOMC: 1.02
  Luc. act., normalized to lacZ: 70.0
  Normalized Luc. act., normalized to control: 1.0
hIRF7 promoter
  Normalized Luc. act., normalized to control: 1.3
  Luc. act., normalized to lacZ: 33.6
  hIRF7 promoter reporter activity: 1.27
mCAR promoter
  luciferase activity normalized to lacZ activity and to a control, mCAR: 0.79
  Luc. act., normalized to lacZ: 30.1
  Normalized Luc. act., normalized to control: 0.8
